# Results taken from article PMC10359615.
# pKd: −log10 of the molar value.
# Biological target: APE1Dead (catalytically dead APE1) D210N;E96Q (human) (UniProt P27695)
# Assay: EMSA
# Conditions: EMSA: 50 mM Tris pH 8, 1 mM EDTA, 0.2 mg/ml BSA, 1 mM DTT, 5% sucrose, room temperature, 5 nM DNA, FRET: 20 mM HEPES pH 7.5, 150 mM KCl, 5 mM MgCl2, 5 mM …
# Sequence of APE1Dead (catalytically dead APE1) D210N;E96Q (human) (P27695 whole entry E96Q/D210N): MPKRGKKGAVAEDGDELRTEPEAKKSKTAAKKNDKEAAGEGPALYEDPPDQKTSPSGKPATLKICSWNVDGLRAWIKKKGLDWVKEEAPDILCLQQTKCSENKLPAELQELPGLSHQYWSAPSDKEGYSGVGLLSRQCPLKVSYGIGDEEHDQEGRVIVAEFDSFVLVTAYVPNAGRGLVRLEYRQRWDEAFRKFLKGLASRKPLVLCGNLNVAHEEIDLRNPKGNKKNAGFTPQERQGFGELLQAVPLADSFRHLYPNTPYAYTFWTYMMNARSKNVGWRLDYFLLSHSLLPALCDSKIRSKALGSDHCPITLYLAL
substance,measurement,setting,value
abasic dsDNA,pKd,"1 mM EDTA, Kd,app, THF abasic analog",9.40
"CTCAACACTTAACTA / TGGATGATGACTCTTCTGCGTTCGCTGATGCGCCGACGGTAGTTAAGTGTTGAG [Rec-PTJ, abasic site 7 nt from junction (FAM)]",pKd,THF abasic analog 7 nt from the 3' ds-ss junction,9.15
"CTCAACACTTAACTACCGTCG / TGGATGATGACTCTTCTGCGTTCGCTGATGCGCCGACGGTAGTTAAGTGTTGAG [PTJ, abasic site at junction (FAM)]",pKd,THF abasic analog directly next to the 3' ds-ss junction,8.92
GCTGATGCGCNCGACGGATCC [abasic ssDNA 21-mer],pKd,"1 mM EDTA, Kd,app, N11 = tetrahydrofuran abasic analog (THF)",7.66
